Experimental data published in patent US12280159B2, “Therapeutic protein-based nanoparticles for treating cancer” (THE REGENTS OF THE UNIVERSITY OF MICHIGAN, priority 2020, dated 2025).

Tests used:
[1] = test system: draining lymph nodes (F4/80+ macrophages, B220+ B cells, CD11c+ DCs); design: species or system C57BL/6 mice; details: mouse, in vivo, sc
Protocol: OVA pNPs delivery to lymph nodes. Next, the pNPs targeting of the draining lymph nodes using AlexaFluor 647-labeled pNPs was evaluated. OVA pNPs of varying PEG/OVA ratio (10, 30, 50%) and size (200 nm, 500 nm) were injected subcutaneously at the tail base of C57BL/6 mice (10 μg OVA/100 μL dose). The inguinal draining lymph nodes were harvested 48 hours after injection. Single-cell suspensions from the draining lymph nodes were prepared and pNPs uptake among the different populations of antigen-presenting cells were analyzed (dendritic cells, macrophages and B cells) using flow cytometry by comparing the MFI values of the cells. […] In the past, many different particle sizes have been studied with respect to their lymphatic drainage. It has been shown that particles exceeding 500 nm can be trapped at the injection site. Nanoparticles smaller than 10 nm, or soluble antigen, diffuse into the lymphatic system easily, but their retention time in the lymph nodes is too short to provide sustained antigen delivery. […] For smaller pNPs sizes, improved uptake is observed for pNP with lower PEG/OVA ratio.

[2] = test system: B16F10-OVA melanoma; assay: Therapeutic efficacy in murine B16F10-OVA melanoma model; assay type: in vivo, C57BL/6 mice; details: treated days 7 and 14 with CpG
Protocol: Therapeutic efficacy of pNPs in a model of melanoma. Encouraged by the fact that OVA pNPs with 10% PEG/OVA ratio result in increased OT-I CD8+ cell proliferation in vitro, improved uptake by APCs (both in vitro and in vivo), and enhanced humoral immune response in vivo, a murine model of B16F10-OVA melanoma was employed to evaluate the therapeutic efficacy of pNPs with a PEG/OVA ratio of 10% compared to solute OVA. Tumor-bearing mice were treated with 10% PEG/OVA pNPs or solute OVA (10 μg OVA/100 μL dose), co-administered with CpG (15 μg/dose). Following the regimen shown in FIG. 9A, C57BL/6 mice (10 mice/treatment group) were inoculated with 1×10^5 B16F10-OVA cells in the SC flank on day 0. Treatments with either 10% PEG/OVA pNPs or solute OVA were initiated on day 7 after tumor inoculation. A second treatment was given on day 14. Mice were euthanized after their tumors reached 15 mm in any dimension. […] More than 50% of mice treated with solute OVA were euthanized due to large tumor burden on day 20, and 100% of the mice were euthanized on day 21.

B1: ovalbumin (protein, UniProt P01012 2-386, looked up)
Ovalbumin: GSIGAASMEFCFDVFKELKVHHANENIFYCPIAIMSALAMVYLGAKDSTRTQINKVVRFDKLPGFGDSIEAQCGTSVNVHSSLRDILNQITKPNDVYSFSLASRLYAEERYPILPEYLQCVKELYRGGLEPINFQTAADQARELINSWVESQTNGIIRNVLQPSSVDSQTAMVLVNAIVFKGLWEKAFKDEDTQAMPFRVTEQESKPVQMMYQIGLFRVASMASEKMKILELPFASGTMSMLVLLPDEVSGLEQLESIINFEKLTEWTSSNVMEERKIKVYLPRMKMEEKYNLTSVLMAMGITDVFSSSANLSGISSAESLKISQAVHAAHAEINEAGREVVGSAEAGVDAASVSEEFRADHPFLFCIKHIATNAVLFFGRCVSP
notes: soluble ovalbumin antigen used as control
For B1, the “MFI of lymph node cells / delivery to draining lymph nodes” value [1] was “not delivered to the lymph nodes efficiently”, the “mice euthanized due to large tumor burden” value ([2]; day 20) was “More than 50%” and the mice euthanized ([2]; day 21) was 100%. The animal survival [2] was “slightly better survival”.
